Test results published in patent US20190000971A1 (RESEARCH INSTITUTE AT NATIONWIDE CHILDREN S HOSPITAL, published 2019).

T1: Haemophilus influenzae IhfA, A5 fragment (Haemophilus influenzae)
T1 construct: Synthetic 20-mer peptide; also called IhfA frag; A5
T1 peptide: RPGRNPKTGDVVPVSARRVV

T2: Haemophilus influenzae IhfB, modified B4 (mB4) fragment (Haemophilus influenzae)
T2 construct: Synthetic 20-mer peptide; also called IhfB frag. mB4
T2 peptide: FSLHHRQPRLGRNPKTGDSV


Legend:
[1] = molecular target: T1, Haemophilus influenzae IhfA, A5 fragment; assay: ELISA, peptide-coated plate (FIG. 2B/2C)
[2] = molecular target: T2, Haemophilus influenzae IhfB, modified …; assay: ELISA (FIG. 2B)

Binder | binding result [1] | binding result [2]
monoclonal antibody IhfA5 NTHI (hybridoma IhfA5 NTHI 14G8.F5.G6, ATCC PTA-122334) (antibody, V domains shown, 13; also called mAb IhfA5NTHI) VH: EVQLQESGPGLVTPSQSLSMTCTVSGFSLTSYSVHWVRQPPGKSLEWLGVIWAGGSTNYNSALMSRLSISKDNSKSQVFLKMDSLQTDDTAIYYCAREDSWGQGTSVTVSS VL: DIVMTQSQKFMSTSVGDRVSVTCKASQNVGTNVAWYQQKPGQSPKALIYSASYRYSGVPDRFTGSGSGTDFTLTISNVQSEDLAEYFCQQYNSYPTFGGGTKLEIK | binds | 
monoclonal antibody mIhfB4 NTHI (hybridoma mIhfB4 NTHI 12E6.F8.D12.D5, ATCC PTA-122335) (antibody, V domains shown, 17; also called Ihf mB4; mB4) VH: EVQLQESGAELVRSGASVKLSCTASGFNIKDYYMHWVKQRPEQGLEWIGWIDPENDDTEYVPKFQGKASMTADTSSNTAYLQLSSLTSEDTAVYYCTELGAYWGQGTLV VL: not shown |  | binds
